B1: TIA-1 RRM2,3 (amino acids 93-274), wild type [not stated] / itself (parent)
chain: NHFHVFVGDLSPEITTEDIKAAFAPFGRISDARVVKDMATGKSKGYGFVSFFNKWDAENAIQQMGGQWLGGRQIRTNWATRKPPAPKSTYESNTKQLSYDEVVNQSSPSNCTVYCGGVTSGLTEQLMRQTFSPFGQIMEIRVFPDKGYSFVRFNSHESAAHAIVSVNGTTIEGHVVKCYWGK

Variants of: B1
Experiment: turbidity (A385 nm)
Conditions: with itself; TIA-1:ZnCl2 ratio 1:8; 20 µM protein; 20 mM HEPES, 50 mM NaCl, 1 mM TCEP, pH 6.9, 25°C, within 30 min incubation under shaking; read off a plot
A response of 0.058 A.U was found for NAFHVFVGDLSPEITTEDIKAAFAPFGRISDARVVKDMATGKSKGYGFVSFFNKWDAENAIQQMGGQWLGGRQIRTNWATRKPPAPKSTYESNTKQLSYDEVVNQSSPSNCTVYCGGVTSGLTEQLMRQTFSPFGQIMEIRVFPDKGYSFVRFNSHESAAHAIVSVNGTTIEGHVVKCYWGK [chain 1 H2A] in this work. A response of 0.056 A.U was found for NAFAVFVGDLSPEITTEDIKAAFAPFGRISDARVVKDMATGKSKGYGFVSFFNKWDAENAIQQMGGQWLGGRQIRTNWATRKPPAPKSTYESNTKQLSYDEVVNQSSPSNCTVYCGGVTSGLTEQLMRQTFSPFGQIMEIRVFPDKGYSFVRFNSHESAAHAIVSVNGTTIEGHVVKCYWGK [chain 1 H2A H4A] in this work. A response of 0.072 A.U was found for NHFAVFVGDLSPEITTEDIKAAFAPFGRISDARVVKDMATGKSKGYGFVSFFNKWDAENAIQQMGGQWLGGRQIRTNWATRKPPAPKSTYESNTKQLSYDEVVNQSSPSNCTVYCGGVTSGLTEQLMRQTFSPFGQIMEIRVFPDKGYSFVRFNSHESAAHAIVSVNGTTIEGHVVKCYWGK [chain 1 H4A] in this work.
